Assay results published in a protein production outcome set (Wang et al. 2014).

Assay: label from the status in PepcDB records
In the case of “MTTFTGHLTDAQAQRLVDGTLLEAEADEVLAHAGDCAECQALTESYRVLGDALGEALGALEVPELPRDFTAGVLSRIDARERAVRRERRFAAAILAAVLVAIGVTVVVAGAGTWAPAASRLAGGLGSAGEVLRLGAGLAGTLLSALRFPLALACTALAVPLLFALSRLIPSARAELA”, the protein production is reported as “failed”. With “MTTHHETYTAPPFGPALMLNAFAPSRGWNPKDGFPDFSFIWRGYQISPAALATLQRAAGRDDAATADRLILLAPHVTGFRLTMALLMCRDWPLPIWRALQLRNRLIRSGDIKLDAASDLIVRAIGWRVHDKGIELDVLAQLMQGGDCPWQSITTFYYRGRFDGPASHGADDGAPMASPPIDPSLPPMTQWTVDGGERLRWAALTGDYNPLHLVDIYARATGFAAASAHPQRIAAQCLGHLAPTPEHPTQLDLWLKGPVYFGRSASLREASNDDGTTFGLWIDGDDRPAMVGVMR” the protein production was “failed”. For “MTTHQVKKSEAKRQHILDSGFHLVLRKGFVGVGLQEILKTSGVPKGSFYHYFESKEAFGCELLKHYISDYQIRLNQLWTTETSARDKLMNYLQCWVKDPATEQSWAESCLIVKMAAEVADLSEDMRLIMNDGVKRLIARMADLIRIGQQEGSIQTSVVPDVLAQVIYQMYLGAALLSKLYKHKAPLFQALESTKMMLDGCNHVQQDKNQ”, the protein production was “not failed”. For “MTTIPSTAEAKLEMLTTINRAIAGSRPEALPPYPVPAPLSRAEILHQFEDRILDYGAAYTHVSAAELPGAIAKALGNARRVIVPAGIPAPWLTVGMDVLRDEPPLSHAELDRADAVLTGCAVAISETGTIILDHRADQGRRALSLIPDFHICVVREDQIVQTVREGVEAVAASVREGRPLTWLSGGSATSDIELVRVEGVHGPRRLQVIVVG”, the protein production was “not failed”. For “MTTKDISRPVCILGLGLIGGSLLRDLHAANHSVFGYNRSRSGAKSAVDEGFDVSADLEATLQRAAAEDALIVLAVPMTAIDSLLDAVHTHAPNNGFTDVVSVKTAVYDAVKARNMQHRYVGSHPMAGTANSGWSASMDGLFKRAVWVVTFDQLFDGTDINSTWISIWKDVVQMALAVGAEVVPSRVGPHDAAAARVSHLTHILAETLAIVGDNGGALSLSLAAGSYRDSTRVAGTDPGLVRAMCESNAGPLVKALDEALAILHEAREGLTAEQPNIEQLADNGYRSRIRYEARSGQRRAKESVSPTITSSRPVLRLHPGTPNWEKQLIHAETLGARIEVF”, the protein production was “not failed”. For “MTTKFVVGYDGSAASRRALDFAMERAKAGGASIIVAHVLEWSPYSFLTPTEIEERHKRRAEEMARAETAILAPLKAELAGSGVEIETAIRYGQVADTLCDIATKSGAAQIFIARQGESGLAARVFGSVAGTLAQYAPVPCTIVP”, the protein production was “failed”. With “MTTKNMNTPPGSTQENEIDLLRLVGELWDHRKFIISVTALFTLIAVAYSLLSTPIYQADTLVQVEQKQGNAILSGLSDMIPNSSPESAPEIQLLQSRMILGKTIAELNLRDIVEQKYFPIVGRGWARLTKEKPGELAISWMHIPQLNGQDQQLTLTVGENGHYTLEGEEFTVNGMVGQRLEKDGVALTIADIKAKPGTQFVLSQRTELEAINALQETFTVSERSKESGMLELTMTGDDPQLITRILNSIANNYLQQNIARQAAQDSQSLEFLQRQLPEVRSELDQAEEKLNVYRQQRDSVDLNLEAKAVLEQIVNVDNQLNELTFREAEISQLYKKDHPTYRALLEKRQTLEQERKRLNKRVSAMPSTQQEVLRLSRDVEAGRAVYLQLLNRQQELSISKSSAIGNVRIIDPAVTQPQPVKPKKALNVVLGFILGLFISVGAVLARAMLRRGVEAPEQLEEHGISVYATIPMSEWLDKRTRLRKKNLFSNQQRHRTKNIPFLAVDNPADSAVEAVRALRTSLHFAMMETENNILMITGATPDSGKTFVSSTLAAVIAQSDQKVLFIDADLRRGYSHNLFTVSNEHGLSEYLAGKDELNKVIQHFGKGGFDVITRGQVPPNPSELLMRDRMRQLLEWANDHYDLVIVDTPPMLAVSDAAVVGRSVGTSLLVARFGLNTAKEVSLSMQRLEQAGVNIKGAILNGVIKRASTAYSYGYNYYGYSYSEKE” the protein production was “failed”. With “MTTKRVNTATNKIMTLNTFLDTCFLLFISILFYLSIPIYPNKVVVVPQGSLKKVFFSLKEQGVDMNALDLLFLRLMGMPKKGYIDMGDGALRKGDFLVRLIKAKAAQKSATLIPGESRYFFTQILSETYQLETSDLNQAYESIAPRLNGEVIEDGVIWPDTYHLPLGEDAFKIMQTLIGQSMKKHEALSKQWLGYYHKEEWFEKIILASIVQKEAANVEEMPLIASVIFNRLKKGMPLQMDGALNYQEFSHAKVTKERIKTDNTPYNTYKFKGLPKNPVGSVSLEAIRAVIFPKKTDFLYFVKMPDKKHAFSATYKEHLKNINLSNNHF” the protein production was “failed”. In the case of “MTTLQLFESVNAFVWGPPLLALLVGTGIYLTIRLGLLQVVRLPLALRYVFGRDDEHHEEGDVSSFAALCTALAATIGTGNIVGVATAVAAGGPGALFWMWVAAFFGMATKYAEGLLAVKYRVTDANGQMSGGPMYYLERGLGSRMLARAFALCGILVAFFGIGTFAQVNAIKDAASLSLGIPPLATAVVLTTTVALVTLGGLRSIARVAEKVVPFMAVFYIIASCAVLVMHLDRIPDAVMVILHSAFNPQAALGGAAGMTVLTAMRAGVARGVFSNESGLGSAPIAAAAARTKSCVRQGLISMTGTFFDTIVICTMTGLVLVVTGVWNDPQLAGAAMTNAAFAAGLESSLGQYAATLGLILFAFTTILGWNYYGERCTEYLFGVRGILPYRLVFIGLVAAGAFVHLELIWVLADIVNGLMAIPNLIGLLGLSGVIIAETRAFFEADAPSVDAPCGSDADNASGACPRA”, the protein production is reported as “failed”. In the case of “MTTLVLVSHPHLADSTSQQFLKASINSDEVLWEHIESQATIDIEKEQAQLRQADRIILQFPLYWYAAPAGLKQWEDTVLTRTFVYGDHRYPLAGKELGIVVTTGMPAKAFQRGGAEQITLDAALAPLAAVANRAKMKWLPTFAIHQFAYLDEPAKLQLVVDYQRYLTQTQPDNLQNKQAWFAQHLPAMIERLPLEQQQAGQLILTAFEQQQTDLEALTDTLGLIKEQEDD”, the protein production is reported as “failed”. For “MTTNIAANSGGIVFHFLGTGGAQQVPAFGCECEVCQQAQRNESKRRRACCAAITTKDRIILIDAGLPELSPYLLPYPQRHILLTHYHMDHVQGLFPLRWGYGEPIPVFGPPDEAGCDDLFKHPGILHFQKPLMAFQPFELDGIRITPVPLIHSKLTYGYLIQTPTHTLAYLTDTIGLPPETTQFLASHTLDYAIVDCSHPPQTMLPRNHNDITRALEIFTQLNPKQLYLTHISHELDRWLQTQTLLPENVHAAYDGLVLGLLEHHHHHH”, the protein production was “failed”. For “MTTNRETVLSMAKRKRSVVAINASGWRSNGEVMGLQIKDGVLYKDYDAAGYTGAEACVFFDDGTMKVYGNREVDADILISKGARNSFAFGIWLVKDSKPRTAQMTTWADLNVKHPRQAIGQRSDGTLVIITVDGRSLRSSGITAYDMPSLFLSEGCINAFLLDGGGSSQTAVEGKYINNISDGIERAVVDTLTISYPDDLEHHHHHH”, the protein production was “failed”. With “MTTPAPVPRITVLLPVYNGEQYLREALDSLLTQTYRNFSLLAVDDGSTDSSLEILRSIKDPRLSVKVNPRNRGLINTLNESLDLIQSEYVARMDADDIATPYRLEEQLAFMDAHPDVGLCGGYYERFTDTESIVVRPPTTHEDISYALIFDNVMAHNTVMFRRSVLERYRLRYDPAFAYAEDYELWVRFARYSRLANLPRVLVRYRFHPANTSSRFRHEQQIAAAKIRHIHRTNLGLEPRPGDAALHRQLFDMRFEGDLPELTAAGIWLSKLYRVGVRRCRQNPVSTFLEFNKLWYSACGRLADHGLKVFAQFLRQPFGFLGNPAYTLKLAYRCWRRIRIALEHHHHHH” the protein production was “failed”.
